From patent publication US20250034594A1, “RNA-GUIDED GENOME RECOMBINEERING AT KILOBASE SCALE” (THE BOARD OF TRUSTEES OF THE LELAND STANFORD JUNIOR …, priority 2021, published 2025)

B1: SSAP_258: SEQ ID NO: 427; Clostridium thermopalmarium (protein, listed as Clostridium thermopalmarium)
chain: ATVNELKNEIATKKETGVGSAGNTIKGLINSPAIKKRFEDVLNKKAPQYMSSIVNLVNGDTNLKKCDQMSVIASCMVAATLDLPIDKNLGYAWIVPYGNRAQFQLGYKGYVQLALRTGQYKAINVIEVHEGELIEWNPLTEELKIDFSQKKSDAIIGYAGYFELLNGFKKSTYWTKEQIIRHKNKFSKSDFGWKKDFDAMAKKTVLRNMLSKWGILSIEMQNAYTADQATIRPEAVETGDIKGNVDYVEADFEENYEGTPFEEVEEGGVNE
B2: SSAP_106: SEQ ID NO: 275; Tepidibacillus fermentans (protein)
chain: ATNEKVKTQLANRANGQAPTPTPEQTIAAYMKKMAPRFAEVLPKHMDIDRMTRIALTTIRTNPKLLEASVPSLLGAIMQAAQLGLEPGLVGHCYLVPFKNGKTGQTEVQFIIGYKGMIDLARRSGNIESIYAHAVYENDTFEYEYGLHPKLVHKPAMTDRGEFIGAYAVAHFKDGGYQFEFMPKEEIEKRRNRSKTANGGPWVTDYEEMAKKTVVRHMWKYLPISIEIQQAAAQDEVIRKDVTSEPEFVDDVIDISTEIEEQSVEVEGEEAQ
modifications: Tepidibacillus fermentans
B3: SSAP_176: SEQ ID NO: 345; Absicoccus porci (protein, listed as Absicoccus porci)
chain: TTTNQQGMITKKANNSVAKKTNRTMKDYITMYQGEIAKALPSVMTPERFVRIATTAVTNTPKLASCTPQSFIGALLNAAQLGLEPNTPLGQAYLIPYGNQCQFQIGYLGMVELAQRAGTNVDAHVVYANDEFDYSLGLHPDIKHVPAMKDRGEAIAYYAVWHNGENFGFEVMSREDVEKHMKKYSKTYSNGPWKTEFDEMAKKTVLKRALKYAPKKTDLARAVMQDETIKQFNPKADNDMADAKNDFFDVEYDEVDENTDPVTGEVK
B4: SSAP_266: SEQ ID NO: 435; Bacteroides stercoris (protein, listed as Bacteroides stercoris)
chain: STITTIPQLKSMLANDNVKARFKEILGKKAPGFISSIVAVANSNTLLQKAEPQSIMNAAVVAATLDLPINPNLGFAYVVPYGNQAQFQMGWRGFVQLAMRSGQYKTINVNEIYEGEIKKSNRFTGEYEFGERASDKIVGYMAYFSLINGFEKFLYMSKEDCEKHGRKFSQTYKRGTGIWSTDFDSMAKKTVLKMLLSKFGILSIEMQRAQTFDQAIIKDNLAETDIDEAEVSYNDNPDNEEARRNAMKEALQEAEVVDENTGELFNTETK
B5: SSAP_170: SEQ ID NO: 339; Dorea longicatena (protein, listed as Dorea longicatena)
chain: TVGKTDEIKQELARKVENTKAGTKLKKSMSIADMIKVMEPQIKKALPEVITPERFTRMALSALNTTPKLNECTPMSFLAALMNAAQLGLEPNTPLGQAFLIPYNNKGKMECQFQLGYKGLIDLSYRNPNMQIITAHTVYENDEFEYELGLNPCLDHRPTLGERGEIRLFYGLFKLTNGGFGFEVMSKTAMDDFAKEYSKAFDSSFSPWRTNYESMALKTIIKKALKYAPLKSEFRNALSTDETIKNEIGADMSEINSENIFDTVYQEECA
B6: SSAP_259: SEQ ID NO: 428; Virgibacillus chiguensis (protein, listed as Virgibacillus chiguensis)
chain: ATNSSLKNQIANKGNGNQNTPQGYTVKQLMSASSVKNRFEETLGKKAPQFMASVINLVNGDTNLQKCDQMSVVSSAMVAAALDLPIDKNLGYAWVVPYGNKATFQMGYKGYIQLALRTGQYKNINVIEVYEGEVKSFNRLTEEIELEFEGKESDKVIGYVGYFELINGFRKTVYWSKDEIERHKKRFSKTGFAWKDNYDAMAKKTVIRNMLNKWGILSIDMQTAVTTDGNAVTQDFEQEDSGLVIDAEFSEVNEASEGQQEIKFENADA
B7: SSAP_27: SEQ ID NO: 196 (protein)
chain: SNNQLSTQQAKRDIAIDTSVWTFQDVKRYFDPQNLLTEKQVGQALSLIKGRNLNPLANEVYIVAYKKKTGGTEFSLIVSKEAFLKRAAQNPNYEGFEAGVVTVDTDGVMHERKGALMLPGDTLVGGWARVYRKNFKVPVEIFVSREEYDKKQSTWNAMPATMIRKTALVNALREAFPEDLGNMYTEDDGGETFDRIKQAEPVESREDVMARKMAQIEQMKQEQAQRQIDTSYPTDDVIDPDDEPAQGELLEDLEY
B8: SSAP_130: SEQ ID NO: 299; Peptoanaerobacter stomatis (protein, listed as Peptoanaerobacter stomatis)
chain: GAKELIQKKQENKQISPTSNMNMLLQSMAGAIKKALPAQINSERFQRVALTAFSSNQKLQQCDPISFLAAMMQSAQLGLEPNTPLGQAYLIPYGKQVQFQVGYKGLLELAQRSGQFKSIYSHEVRENDEFEMEYGLNQKLVHKPNLKQERGEVIGYYACYHLTNGGESMFFMTKDEIINFGKSKSKTFNNGPWQTDFDAMAKKTVLKQLLKYAPLSIESQKFMSMDETVKSDISANMDEINNDTVDFEVDIQTGEVINDIVVENTNEDEAN
B9: SSAP_275: SEQ ID NO: 444; Paenibacillus pinihumi (protein, listed as Paenibacillus pinihumi)
chain: ADANKLLVINEKLIKLIESKQDAMPKSFNKTRFIQNCMAVLQDTDEIDKCDATSVARTLLKGAFLGLDFMNKECYPIIYGGKCTFQTDYKGEIKLAQKYSVRPVLNIYAELVREGDFFLKEVKDGQRTIQHKPPEGFNDGKVIGAFAIVLYKDGGMDCESMSVAEIETTRKNYSKQANGPSWTKSPGEMQKKTVLRRLCKTIQLDFDTIEAKEAFEDGGDFDFKQDPKPQQQSPFDKNATVVDAEYEEVEEEDQSESAT
B10: SSAP_227: SEQ ID NO: 396; Streptococcus parauberis (protein, listed as Streptococcus parauberis)
chain: ANQLTVVNTLQSDAVKEKFEAVMGEKANGFVSSVLSVVTNNNILSKADFNSVYTSAMKAAVLDLPVEPSLGMAHIVPYKGKAQFQIGYKGLIQLALRSGQVVGLNAGKVYEGQFKSFNALTEKLDIVDIYNPKKDEPIVGYFAYMKLSNGFEKTTYWTKEQVEEHGKKYSQSYDSKFSPWQTNFDAMARKTVLKSILSTYAPLTIEMQNANDFDNGKNTGIEPLEVKDVTPETDNESLLTDLLEDEPSVNTETGEIIEDTELDLDYGQINAK
B11: SSAP_97: SEQ ID NO: 266; Gilliamella apicola (protein, listed as Gilliamella apicola)
chain: SEQNQPPIAKSDLEKTQLTNQDKKPATLAELVNSPKIKNQLAMALPKHMNPDRMARIVTTEIRKTPALADSNIQSFLGAVVQCSQLGLEPGGALGHAYLLPFGNGKAKDGKSNVQLIIGYRGMIDLARRSGQIISISARTVREGDDFHYEYGLNEDLKHTPKADESAPITYVYAVARLKDGGSQFEVMTFNQIESVRKQSKAGDKGPWITHWEEMAKKTVIRRLFKYLPVSIEIQQAVILDEKAEAGISQDNEMILDADFSVVEA
B12: SSAP_74: SEQ ID NO: 243 (protein)
chain: SNPPLAQADLQKTQGTEVKTKTKDQQLIHFINQPSMKAQLAAALPRHMTPDRMIRIVTTEIRKTPALANCDMQSFIGAVVQCSQLGLEPGNALGHAYLLPFGNGKAKSGQSNVQLIIGYRGMIDLARRSNQIISISARTVRQGDSFHFEYGLNENLTHVPGENEDSPITHVYAVARLKDGGVQFEVMTHNQIEKVRASSKAGQNGPWVSHWEEMAKKTVIRRLFKYLPVSIEMQKAVILDEKAEANVDQENASVFEGEFEEVSQSA
B13: SSAP_62: SEQ ID NO: 231 (protein)
chain: SEISKAVATQQNPLAVVARYKRELGTVLPTVLRQDPDRWLMAAENAARKNPDIMAVTKADQGASYMRALVECARLGHEPGSKDFHFIKRGNAISGEESYRGIIKRVLNSGFYRSVVARTVFSNDTYSFDPLTDIVPNHVPAQGDRGKPLSAYAFAVHWDGTPSTVAEATPERIATAKAKSFASDKPTSPWQLPTGVMYRKTAIRELEPYVHVAPEPQPRRHLDGTVGGIPATDFDVDDGDVLDITADQLAEAGEIV

Tested on: gene editing with Cas9
Test: Screen of 322 new SSAP proteins, gene editing activity with Cas9 (Table 5)
Type: cell-based
Parameters: Cas9 with SSAP activity: scale not given here
Details: not given
How it was run: (§1)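 Read-out is gene editing activity. Candidates come from sequence data mining, are made synthetically, and are tested alongside either nuclease-active Cas9 or catalytically dead dCas9.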

First: B1
Second: B2
The “Cas9 with SSAP activity” value of the first is higher: −3.280 for the first, −5.574 for the second.

Going from B3 to B4, the “Cas9 with SSAP activity” value falls from 1.105 to −6.013.

Compared with B5, B6 is lower in “Cas9 with SSAP activity” value: 2.314 for the first, −2.773 for the second.

First: B7
Second: B8
The “Cas9 with SSAP activity” value of the first is lower: −2.642 for the first, −0.778 for the second.

First: B9
Second: B10
The “Cas9 with SSAP activity” value of the first is lower: −1.206 for the first, −0.330 for the second.

Going from B11 to B12, the “Cas9 with SSAP activity” value rises from −5.948 to 0.893.

In the case of B13, the “Cas9 with SSAP activity” value is reported as −2.135.

Same assay, conditions: normalized

Compared with B1, B2 is lower in “Cas9 with SSAP activity (normalized)” value: −0.553 for the first, −1.211 for the second.

First: B3
Second: B4
The “Cas9 with SSAP activity (normalized)” value of the first is higher: 2.418 for the first, −1.700 for the second.

First: B5
Second: B6
The “Cas9 with SSAP activity (normalized)” value of the first is higher: 1.852 for the first, −0.529 for the second.

Going from B7 to B8, the “Cas9 with SSAP activity (normalized)” value rises from −0.956 to −0.800.

First: B9
Second: B10
The “Cas9 with SSAP activity (normalized)” value of the first is lower: −0.494 for the first, −0.310 for the second.

Going from B11 to B12, the “Cas9 with SSAP activity (normalized)” value rises from −1.267 to 0.751.

In the case of B13, the “Cas9 with SSAP activity (normalized)” value is reported as −1.289.

Tested on: gene editing with dCas9
Test: Screen of 322 new SSAP proteins, gene editing activity with dCas9 (Table 5)
Type: cell-based
Parameters: dCas9 with SSAP activity: scale not given here
Details: not given
How it was run: as §1

Going from B1 to B2, the “dCas9 with SSAP activity” value rises from −4.748 to −4.572.

First: B3
Second: B4
The “dCas9 with SSAP activity” value of the first is lower: −4.682 for the first, −4.677 for the second.

Going from B5 to B6, the “dCas9 with SSAP activity” value falls from −4.682 to −4.841.

Going from B7 to B8, the “dCas9 with SSAP activity” value rises from −4.680 to −4.650.

First: B9
Second: B10
The “dCas9 with SSAP activity” value of the first is higher: −4.593 for the first, −4.819 for the second.

Going from B11 to B12, the “dCas9 with SSAP activity” value rises from −4.633 to 0.668.

For B13, the “dCas9 with SSAP activity” value was −4.940.

Same assay, conditions: normalized

Going from B1 to B2, the “dCas9 with SSAP activity (normalized)” value rises from −0.956 to −0.829.

Compared with B3, B4 is lower in “dCas9 with SSAP activity (normalized)” value: −0.680 for the first, −0.799 for the second.

Compared with B5, B6 is lower in “dCas9 with SSAP activity (normalized)” value: −0.968 for the first, −1.414 for the second.

Going from B7 to B8, the “dCas9 with SSAP activity (normalized)” value falls from −0.675 to −0.774.

Compared with B9, B10 is higher in “dCas9 with SSAP activity (normalized)” value: −0.870 for the first, −0.774 for the second.

First: B11
Second: B12
The “dCas9 with SSAP activity (normalized)” value of the first is lower: −0.842 for the first, 0.984 for the second.

For B13, the “dCas9 with SSAP activity (normalized)” value was −0.604.

Tested on: gene editing with Cas9 and dCas9
Test: Screen of 322 new SSAP proteins, activity across all experiments (Cas9 and dCas9, Table 5)
Type: cell-based
Parameters: scale not given here
Details: not given
How it was run: as §1

Going from B1 to B2, the “Activity across all experiments” value falls from −4.014 to −5.073.

Compared with B3, B4 is lower in “Activity across all experiments” value: −1.789 for the first, −5.345 for the second.

Going from B5 to B6, the “Activity across all experiments” value falls from −1.184 to −3.807.

Compared with B7, B8 is higher in “Activity across all experiments” value: −3.661 for the first, −2.714 for the second.

Going from B9 to B10, the “Activity across all experiments” value rises from −2.900 to −2.575.

First: B11
Second: B12
The “Activity across all experiments” value of the first is lower: −5.290 for the first, 0.781 for the second.

With B13 the “Activity across all experiments” value was −3.538.
